Consider one substance from US20060281673A1, “Novel peptide inhibitor of hiv fusion that disrupts the internal trimeric coiled-coil of gp41” (priority 2003, published 2006).

The target of this assay is pre-hairpin intermediate of gp41 (HIV-1 Env on effector cells) (HIV-1) (UniProt P03377). Put plainly: cell-based or functional assay.

The substance N36 peptide returned an IC50, inhibition of HIV Env-mediated cell fusion (vaccinia virus-based reporter gene assay) of 16 µM.
